Measured values reported in patent publication US10808017B2, “Ubiquitin variants and uses therof as 53BP1 inhibitors” (The Governing Council of the University of Toronto, priority 2016, dated 2020).
Values joined by “and” are separate entries in the source; they are usually repeats but may differ in a detail not shown here. Equal entries are not always repeated.

What was measured:
[1] = target: T1, PHB (Homo sapiens, UniProt P35232); assay: Flag IP-MS of i53/i53-DM baits: prey PHB; assay type: binding; conditions: 293T Flp-In/T-Rex extracts, LC-MS/MS, one column per replicate IP
T1 construct: endogenous in cells; host or cells: HEK293 Flp-In/T-REx
T1 sequence (P35232 1-272): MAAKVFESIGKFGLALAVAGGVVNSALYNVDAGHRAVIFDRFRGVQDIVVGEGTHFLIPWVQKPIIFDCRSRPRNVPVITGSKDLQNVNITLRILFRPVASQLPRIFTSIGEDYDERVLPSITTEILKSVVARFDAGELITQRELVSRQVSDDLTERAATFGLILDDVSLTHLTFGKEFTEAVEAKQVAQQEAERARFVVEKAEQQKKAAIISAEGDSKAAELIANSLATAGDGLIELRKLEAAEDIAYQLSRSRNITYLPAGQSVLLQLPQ
Method: (§1) Following immunoprecipitation of Flag-tagged i53 and i-53-DM from HEK293 Flp-In/T-REx cells, peptides were identified using LC-MS/MS. Proteins were digested in solution with trypsin (Sigma, T7575-1KT) and dried to completeness. For LC-MS/MS analysis, peptides were reconstituted in 5% formic acid and loaded onto a 12-15 cm fused silica column with pulled tip packed in-house with 3.5 μm Zorbax C18 (Agilent Technologies, Calif., USA).
(§2) i53 and i53-DM precipitates were analyzed using an LTQ (Thermo Scientific) coupled to an Agilent 1100 Series HPLC (Agilent Technologies). Peptides were eluted from the column using a 90 min period cycle with a linear gradient from 0% to 40% ACN in 0.1% formic acid. Tandem MS spectra were acquired in a data-dependent mode for the top 5 (LTQ) most abundant ions using collision-induced dissociation. Acquired spectra were searched against the human Refseq_V53 database using Mascot (Matrix Science).
(§3) 293T Flp-In/T-Rex cell lines were generated that expressed Flag-tagged i53 or i53-DM under the control of a tetracycline-inducible promoter as previously described. Nine IP-MS experiments were analyzed (3 biological replicate IPs each for control i53- and i53-DM expressing cell lines). The interacting proteins were identified by MASCOT to identify high-confidence interactors for i53. […]

[2] = test system: BRCA1 focus formation in U2OS cells; assay: Ionizing radiation focus formation, BRCA1 (immunofluorescence); assay type: cell-based; conditions: 10 Gy
Method: (§4) FIG. 3. The i53 protein inhibits 53BP1. FIG. 3A-B, U2OS cells were transfected with vectors expressing i53, its 53BP1-binding deficient mutant (DM) or an empty vector (EV) control. Cells were then X-irradiated with a 10 Gy dose and processed for immunofluorescence with the indicated antibodies 1 h post-irradiation (IR). DAPI staining (not shown) was used to delineate the outline (dashed lines) of the cell nuclei. The region in the magnified inset is indicated with a square. Quantitation of the experiment is shown in panel (a) and data is indicated as the mean±s.e.m (N=3), whereas in (b) representative micrographs are shown. Arrowheads indicate Flag-positive cells. FIG. 3C, Parental or 53BP1ΔU2OS cells transfected with vectors expressing i53, the DM mutant or an empty vector (EV) control were irradiated (10 Gy) 1 h before being processed for immunofluorescence. Cell cycle stage was assessed by Cyclin A staining. The data is presented as the mean±s.e.m.; N=3. FIG. 3D, Immunoprecipitation (IP) of Flag-tagged proteins from extracts prepared from 293T cells transfected with vectors expressing Flag-i53 or the i53-DM mutant. Proteins were separated by SDS-PAGE and immunoblotted (IB) for Flag and 53BP1. […]

[3] = target: T2, 53BP1 recruitment to DSB sites in U2OS cells (Homo sapiens, UniProt Q12888); assay: Ionizing radiation focus formation, 53BP1 (immunofluorescence); assay type: cell-based; conditions: transfected U2OS cells, 10 Gy X-rays, 1 h post-irradiation
T2 construct: endogenous in cells; host or cells: U2OS
T2 sequence (Q12888 whole entry): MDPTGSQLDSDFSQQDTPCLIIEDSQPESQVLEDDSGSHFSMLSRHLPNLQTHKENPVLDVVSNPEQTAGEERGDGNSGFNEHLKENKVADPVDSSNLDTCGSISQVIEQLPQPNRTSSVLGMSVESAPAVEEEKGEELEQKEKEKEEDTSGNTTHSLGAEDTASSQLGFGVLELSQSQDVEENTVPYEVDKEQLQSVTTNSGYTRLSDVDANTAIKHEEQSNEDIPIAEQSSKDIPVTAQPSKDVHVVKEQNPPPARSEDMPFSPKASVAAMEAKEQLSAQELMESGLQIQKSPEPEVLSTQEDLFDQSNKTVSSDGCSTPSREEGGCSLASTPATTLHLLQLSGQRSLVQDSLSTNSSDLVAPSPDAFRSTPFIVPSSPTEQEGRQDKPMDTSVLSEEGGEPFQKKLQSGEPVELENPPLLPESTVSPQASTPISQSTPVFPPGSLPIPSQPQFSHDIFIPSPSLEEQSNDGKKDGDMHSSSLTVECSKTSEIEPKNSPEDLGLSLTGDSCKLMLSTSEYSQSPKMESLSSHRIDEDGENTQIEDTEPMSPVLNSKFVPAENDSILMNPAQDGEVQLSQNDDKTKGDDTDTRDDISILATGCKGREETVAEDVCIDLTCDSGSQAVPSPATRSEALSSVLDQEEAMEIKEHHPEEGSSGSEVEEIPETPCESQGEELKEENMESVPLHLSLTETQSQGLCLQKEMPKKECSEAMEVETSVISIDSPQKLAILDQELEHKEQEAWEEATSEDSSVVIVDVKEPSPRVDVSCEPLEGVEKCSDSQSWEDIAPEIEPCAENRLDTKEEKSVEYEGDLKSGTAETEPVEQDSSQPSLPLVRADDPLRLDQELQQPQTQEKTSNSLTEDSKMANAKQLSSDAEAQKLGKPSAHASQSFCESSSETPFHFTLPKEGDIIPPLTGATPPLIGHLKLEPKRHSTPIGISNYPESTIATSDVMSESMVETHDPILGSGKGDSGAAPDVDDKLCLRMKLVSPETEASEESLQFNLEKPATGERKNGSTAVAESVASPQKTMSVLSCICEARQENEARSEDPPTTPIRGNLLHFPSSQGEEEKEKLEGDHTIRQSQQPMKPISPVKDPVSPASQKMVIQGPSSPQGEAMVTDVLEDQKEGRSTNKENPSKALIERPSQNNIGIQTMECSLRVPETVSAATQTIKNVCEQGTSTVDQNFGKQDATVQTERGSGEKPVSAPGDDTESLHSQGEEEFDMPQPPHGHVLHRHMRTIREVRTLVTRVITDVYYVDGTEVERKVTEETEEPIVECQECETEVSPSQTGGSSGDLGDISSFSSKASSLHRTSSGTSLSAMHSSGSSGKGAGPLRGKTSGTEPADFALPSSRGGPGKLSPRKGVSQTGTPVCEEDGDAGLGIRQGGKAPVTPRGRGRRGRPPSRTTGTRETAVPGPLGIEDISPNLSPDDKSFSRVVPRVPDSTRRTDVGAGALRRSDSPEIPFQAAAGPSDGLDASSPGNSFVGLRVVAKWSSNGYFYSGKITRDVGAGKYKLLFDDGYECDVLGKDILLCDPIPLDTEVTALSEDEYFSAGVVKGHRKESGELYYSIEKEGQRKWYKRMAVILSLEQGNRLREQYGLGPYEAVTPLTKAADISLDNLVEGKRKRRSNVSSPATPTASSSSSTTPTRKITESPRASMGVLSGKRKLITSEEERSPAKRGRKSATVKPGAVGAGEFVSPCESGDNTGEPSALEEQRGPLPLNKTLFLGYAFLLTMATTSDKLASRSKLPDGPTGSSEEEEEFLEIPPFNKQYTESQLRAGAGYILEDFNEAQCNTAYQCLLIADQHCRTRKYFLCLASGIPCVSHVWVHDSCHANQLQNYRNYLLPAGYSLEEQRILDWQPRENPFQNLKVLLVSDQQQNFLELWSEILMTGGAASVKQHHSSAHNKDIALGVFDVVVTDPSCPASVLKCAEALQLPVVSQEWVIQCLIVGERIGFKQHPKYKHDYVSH
Method: as §4

[4] = target: T3, MGA (Homo sapiens, UniProt Q8IWI9); assay: Flag IP-MS of i53/i53-DM baits: prey MGA; assay type: binding; conditions: 293T Flp-In/T-Rex extracts, LC-MS/MS, one column per replicate IP
T3 construct: endogenous in cells; host or cells: HEK293 Flp-In/T-REx cells
Method: as §1, §2, §3

[5] = target: T4, RPL8 (Homo sapiens, UniProt P62917); assay: Flag IP-MS of i53/i53-DM baits: prey RPL8; assay type: binding; conditions: 293T Flp-In/T-Rex extracts, LC-MS/MS, one column per replicate IP
T4 construct: Following immunoprecipitation of Flag-tagged i53 and i-53-DM from HEK293 Flp-In/T-REx cells, peptides were identified using LC-MS/MS; endogenous in cells; host or cells: HEK293 Flp-In/T-REx cells
Method: as §1, §2, §3

[6] = target: T5, MYCBP (Homo sapiens, UniProt Q99417); assay: Flag IP-MS of i53/i53-DM baits: prey MYCBP; assay type: binding; conditions: 293T Flp-In/T-Rex extracts, LC-MS/MS, one column per replicate IP, listed as Flag-i53-DM
T5 construct: endogenous in cells; host or cells: HEK293 Flp-In/T-REx
T5 sequence (Q99417 1-103): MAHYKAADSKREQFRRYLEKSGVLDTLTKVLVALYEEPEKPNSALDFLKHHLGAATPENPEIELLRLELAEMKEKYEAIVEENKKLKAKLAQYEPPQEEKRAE
Method: as §1, §2, §3

[7] = test system: RAB34; assay: Flag IP-MS of i53/i53-DM baits: prey RAB34; assay type: binding, human; conditions: 293T Flp-In/T-Rex extracts, LC-MS/MS, one column per replicate IP
Method: as §1, §2, §3

[8] = target: T6, KDM5B (Homo sapiens, UniProt Q9UGL1); assay: Flag IP-MS of i53/i53-DM baits: prey KDM5B; assay type: binding; conditions: 293T Flp-In/T-Rex extracts, LC-MS/MS, one column per replicate IP
T6 construct: endogenous in cells; host or cells: HEK293 Flp-In/T-REx
T6 sequence (Q9UGL1 whole entry): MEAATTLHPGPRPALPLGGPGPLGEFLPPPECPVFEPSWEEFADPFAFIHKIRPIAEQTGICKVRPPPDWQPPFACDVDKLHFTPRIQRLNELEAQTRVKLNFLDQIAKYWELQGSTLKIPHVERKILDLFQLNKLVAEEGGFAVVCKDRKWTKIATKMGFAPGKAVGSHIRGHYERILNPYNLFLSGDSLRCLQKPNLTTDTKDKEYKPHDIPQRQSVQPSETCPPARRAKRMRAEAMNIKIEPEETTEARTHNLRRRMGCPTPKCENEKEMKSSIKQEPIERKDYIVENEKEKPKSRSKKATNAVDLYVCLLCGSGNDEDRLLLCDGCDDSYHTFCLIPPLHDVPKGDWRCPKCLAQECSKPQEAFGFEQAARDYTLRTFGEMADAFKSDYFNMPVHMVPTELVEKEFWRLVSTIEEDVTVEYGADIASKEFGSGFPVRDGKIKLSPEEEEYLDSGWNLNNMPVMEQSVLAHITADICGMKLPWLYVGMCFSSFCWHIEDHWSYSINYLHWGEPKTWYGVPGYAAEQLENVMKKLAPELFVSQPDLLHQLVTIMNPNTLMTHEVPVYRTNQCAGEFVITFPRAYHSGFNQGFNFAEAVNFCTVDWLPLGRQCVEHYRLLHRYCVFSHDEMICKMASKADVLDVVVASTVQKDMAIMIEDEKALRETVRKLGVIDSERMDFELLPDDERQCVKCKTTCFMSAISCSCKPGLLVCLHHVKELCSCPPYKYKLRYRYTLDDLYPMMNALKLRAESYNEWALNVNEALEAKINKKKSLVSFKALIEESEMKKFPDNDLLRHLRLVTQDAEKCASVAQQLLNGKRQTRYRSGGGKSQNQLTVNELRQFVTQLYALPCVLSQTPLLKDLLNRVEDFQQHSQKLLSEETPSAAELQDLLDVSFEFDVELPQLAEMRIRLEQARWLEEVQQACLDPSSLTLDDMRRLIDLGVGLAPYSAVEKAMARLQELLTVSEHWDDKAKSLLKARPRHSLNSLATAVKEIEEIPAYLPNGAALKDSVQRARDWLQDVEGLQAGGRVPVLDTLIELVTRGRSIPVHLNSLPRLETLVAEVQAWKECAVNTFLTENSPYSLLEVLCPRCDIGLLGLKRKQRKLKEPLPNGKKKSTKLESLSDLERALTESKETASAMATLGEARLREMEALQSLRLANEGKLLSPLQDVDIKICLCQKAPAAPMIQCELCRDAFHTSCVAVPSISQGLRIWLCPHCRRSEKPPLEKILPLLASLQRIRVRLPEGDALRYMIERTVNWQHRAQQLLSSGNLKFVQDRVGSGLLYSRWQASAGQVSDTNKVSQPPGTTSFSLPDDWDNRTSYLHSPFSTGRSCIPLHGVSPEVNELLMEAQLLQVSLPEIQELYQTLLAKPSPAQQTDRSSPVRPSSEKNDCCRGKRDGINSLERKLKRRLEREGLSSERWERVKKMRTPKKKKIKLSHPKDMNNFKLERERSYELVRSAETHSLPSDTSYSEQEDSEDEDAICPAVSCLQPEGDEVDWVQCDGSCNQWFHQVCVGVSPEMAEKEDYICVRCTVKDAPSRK
Method: as §1, §2, §3

[9] = target: T7, WDR96 (Homo sapiens, UniProt Q8NDM7); assay: Flag IP-MS of i53/i53-DM baits: prey WDR96; assay type: binding; conditions: 293T Flp-In/T-Rex extracts, LC-MS/MS, one column per replicate IP
T7 construct: Following immunoprecipitation of Flag-tagged i53 and i-53-DM from HEK293 Flp-In/T-REx cells, peptides were identified using LC-MS/MS; endogenous in cells; host or cells: HEK293 Flp-In/T-REx cells
T7 sequence (Q8NDM7 whole entry): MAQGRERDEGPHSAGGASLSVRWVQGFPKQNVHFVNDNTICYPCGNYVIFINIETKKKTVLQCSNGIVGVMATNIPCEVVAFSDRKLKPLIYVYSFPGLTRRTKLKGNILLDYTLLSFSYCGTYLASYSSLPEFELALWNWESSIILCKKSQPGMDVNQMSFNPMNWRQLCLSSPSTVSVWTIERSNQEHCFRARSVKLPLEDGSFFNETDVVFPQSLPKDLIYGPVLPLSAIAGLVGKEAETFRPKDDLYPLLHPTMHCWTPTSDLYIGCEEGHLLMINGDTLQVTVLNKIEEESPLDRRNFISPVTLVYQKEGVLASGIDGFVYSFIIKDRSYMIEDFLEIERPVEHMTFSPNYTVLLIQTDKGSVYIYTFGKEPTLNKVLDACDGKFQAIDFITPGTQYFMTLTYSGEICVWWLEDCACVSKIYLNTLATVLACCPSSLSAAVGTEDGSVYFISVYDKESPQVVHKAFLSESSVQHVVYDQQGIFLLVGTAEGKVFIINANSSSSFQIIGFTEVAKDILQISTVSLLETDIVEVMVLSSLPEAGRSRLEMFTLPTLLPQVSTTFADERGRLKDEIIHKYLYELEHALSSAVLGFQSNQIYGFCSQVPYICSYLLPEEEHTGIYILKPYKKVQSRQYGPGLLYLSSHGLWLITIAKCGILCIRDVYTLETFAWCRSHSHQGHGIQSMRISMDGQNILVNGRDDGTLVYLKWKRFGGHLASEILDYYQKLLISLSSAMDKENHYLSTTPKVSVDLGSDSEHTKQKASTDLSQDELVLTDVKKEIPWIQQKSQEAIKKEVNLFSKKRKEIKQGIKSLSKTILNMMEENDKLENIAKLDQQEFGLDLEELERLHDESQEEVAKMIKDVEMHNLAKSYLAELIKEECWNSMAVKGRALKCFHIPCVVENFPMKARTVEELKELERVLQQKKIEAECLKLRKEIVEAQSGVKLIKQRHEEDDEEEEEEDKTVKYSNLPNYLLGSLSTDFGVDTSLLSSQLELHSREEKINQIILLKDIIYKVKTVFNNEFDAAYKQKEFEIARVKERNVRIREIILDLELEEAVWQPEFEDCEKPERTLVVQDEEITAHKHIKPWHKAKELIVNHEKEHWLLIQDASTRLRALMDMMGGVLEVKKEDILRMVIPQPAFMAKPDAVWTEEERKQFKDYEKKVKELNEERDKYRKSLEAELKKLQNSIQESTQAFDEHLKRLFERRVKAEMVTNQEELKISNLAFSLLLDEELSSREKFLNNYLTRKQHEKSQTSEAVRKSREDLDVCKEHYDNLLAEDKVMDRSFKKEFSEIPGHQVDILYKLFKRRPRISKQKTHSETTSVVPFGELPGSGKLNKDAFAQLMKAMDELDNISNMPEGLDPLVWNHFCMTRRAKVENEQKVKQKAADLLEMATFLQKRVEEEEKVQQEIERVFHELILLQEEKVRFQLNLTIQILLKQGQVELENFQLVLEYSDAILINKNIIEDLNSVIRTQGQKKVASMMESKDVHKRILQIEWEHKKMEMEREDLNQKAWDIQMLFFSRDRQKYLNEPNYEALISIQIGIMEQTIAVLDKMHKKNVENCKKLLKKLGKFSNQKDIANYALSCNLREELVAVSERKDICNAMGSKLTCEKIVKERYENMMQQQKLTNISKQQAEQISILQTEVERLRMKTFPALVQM
Method: as §1, §2, §3

Row | Total peptides, PHB [1] | Total peptides, MGA [4] | Total peptides, RPL8 [5] | Total peptides, MYCBP [6] | Total peptides, KDM5B [8] | Total peptides, WDR96 [9] | Substance | BRCA1 accumulation at DSB sites in G1 cells ([2]; U2OS cells, cell cycle stage by Cyclin A staining) | BRCA1 focus formation ([2]; transfected U2OS cells, 1 h post-irradiation) | 53BP1 recruitment to DSB sites (ionizing radiation focus formation) [3] | Total peptides, RAB34 [7]
1 | 2 |  |  |  |  |  | i53: UbvG08 with C-terminal di-glycine removed and I44A mutation; genetically encoded inhibitor of 53BP1 | induced BRCA1 accumulation at DSB sites in G1 cells | did not impact | strongly suppressed 53BP1 recruitment to DSB sites | 
2 |  | 2 | 5 | 7 and 5 | 3 | 4 | i53-DM: 53BP1-binding deficient mutant of i53 (P69L, L70V) |  |  |  | 2
